In the domain aggregation screens of Martell et al. (2025):

Assay: soluble fraction after stress (log2 fold change); higher = more stays soluble; pooled small domains, quantitative proteomics
Settings: stress: 50 degC
Procedure, shortened: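 Quantitative proteomics served as the high-throughput read-out for pooled custom libraries of small protein domains. Each was stressed at 50°C. Aggregation propensity is expressed as the base-two log fold change in soluble protein after stress. A higher value means a larger share of the protein remains in solution.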

Sequence | soluble fraction (log2)
HMSVLLDDLSPREREILQLVVEGHSSTKIAGMLGLASATVDTYRSRLMAKLHIDNLPDLVRFAIRHGLIS | -1.22
HMDKLSYALGLSMGHNFLGSGIKSLNVEDFAKGVEAVYKQEKPEISFDEAKKIINEFFSNLQDEIAE | -0.628
HMRAAKSEDTRTRLIEGGMALFGQKGYNATGIKDITDAAGVPKGSFYNYFASKEDFGAEIIHSY | 0.122
HMTPADEAGNDLDIGQTVKILRRVSEGQYEVSYRGTTWQARALNAQAAVEPSFAVIGGKEGNILLVHL | 0.122
HMSLAVFLQGLLEEKQLKKADVIRRTGMEPTYGYHIFDGHKKHPARSKVLLLALAMGLTVKEAQHLLYYAG | -0.116
HMDFSSRLKDERKRLKLSQAQLGEAGGVSKDAQLNYENGSRSPSASYLELIAREGVDVQFLLTGKRS | 0.0732
HMETWKLYKRAYKKYYARYMKGNMSEADFKAWATQAAADRDAAIEQITPEIDAALKAQIIEQLREKLNR | -0.856
HMHVYSYPAAVKIKNAVGREMMVTLLGRSGTHVQFARQDGEEFVYPISSLDLAAQTLISKYPNDGIKN | -0.444
HMRVNINVSENILDWVMKRVNPSVLSSKQGELLYAWKEGRKVPTYNQIEKMSKVTGIPLGYFFLEKPPVE | -0.569
HMTQQYVEWKVYNVTTIKNKYGFRVKLIFQDGSDATQQKGGFTSKKAAEQARTEVIGQLYSNTYVVY | -4.49
HMDAEWRTLTLAPEQHQQRLDRALADSLPEFSRSYVQQLIDTGMVRVNGVLAAKSAQRVKALDQVQVELR | -0.229
HMTLLVPASKEAILGGLAKIDALKVILKPEKDYSKTHAMTIGTKDEVIAKLDSFLSGMDSEKNQVLIQEYM | 0.107
HMVTIEEMMDRLLTRVQRAVNMSFSEFSGEAKEKVEVIVSFLALLELVKQGAVDVLQHENFSDIRIENT | -0.857
HMNVAETITLGKRLFNHALTILGKKQRNISRKQLKNFLNDLGLKDSKDLYESIGTGDKNPILMAQLLLG | -0.509
HMQFYSGLEARLMDPNTPEVFDDPISLMAFLQQKNISRVELEDNLLLPYLKEMAGQPIPKAELLEIIRK | -0.475
HMHGEAVVVPNVKGLPMRQAENEIYKQSLKAVAIDSSYVKGMPPGAILEQNPAGGSKVKKGRTVYLTINMD | -0.0918
HMDVPTSSITEVKKSPMDVFAQARKAETGVYIFNREKIAGVMLTKEQYEALVEELNTLRDTL | -0.438
HMVMVVDVLKALSNNSSDKFFNTSISNAIKAQEDSQEDFVTLFGIEYEKLSPNNGLAVIFTSQ | 0.425
HMTKLTTDERSVYLHIQNKPGVSASSIREALGYKKSKLTSILAQLLEVHKIIDTEGTGKSLKYIL | -0.0662
HMHLLGASIAAYRKKAGMTQEDLGRALFVSGQAVSRWERGGTPDSDMLPKIADVLGISLDTLFGRS | -0.559
HMKEETEMVTIPDVTGKPLTEAANLLREAKLDYLAESTGTSVTKQMPLPGAEVMVNTTVLLYTG | 0.156
HMSDDSYLVALAEAYKNATSWDIRRQVLSIMTGVSSYKEISRYIPGLTQYRLSISNLHRLQYGRAAPVP | 0.0583
HMRPTYRTRLEVLINNPAISGRDLDFAQSLLSYYERKGRLSAGRVKWVTTLEERYSPENLAASAAK | -0.828
HMKNLSQAEFMYLFKILAFGSTDPDNHPEMAATGMEIAKMLQGLLLSGNVLADILRKNQNVQFWL | -0.204
HMDAISYTQFMEEAKQGRINKVEVQGRTLMVTPTDGKAYSLTSPGDLWMTTDLMKYGVNVYGAE | -0.00324

Sequence | soluble fraction (log2)
HMDDYRIEDMMTVVEEQVIRQKETNLSWFFKRAGSLNEIITIFLAALELIKVHRVYVKQEHNFDDIILRKE | 0.133
HMSMEKNWVPSEDVIEILTRAGMNENFIRELIPEFIIYWSERKDVLISYDSKFIEHARLKWAQHNAE | 0.176
HMEELTPLQKYVFDYESDISDEVDMRAIKGLENANDVYDYYANVRGWEGDPDLEDDLDNIYRQVKARFA | 0.0161
HMIMGTITKRTNPSGAIVYRAQIRIKKAGYPDFSESRTFSKKAMAVEWLKLREAELEMHPELLFR | -1.34
HMNRNEFMERLEYLLSDIPQEEKADAIAYYRDYLEEAGDDAGKAIQDFGSPERIAAMIRSELAG | -0.0703
HMNIKYDFPTNSPLEMMRNLFDSNSQIINDLKDGFAMANSLNEQGLANFFAERIDKHQFWSWQLSASL | -0.399
HMSILYNAVKGTLVSSGALTADSWYKISSFGTASALPALKVGSIFKTPEGAGDAITLASGDSVYPLTLT | -1.26
HMQAVDPLELRAGDFVVHEQHGIGRYVEMVQRTIGGITREYLVIEYAPAKRGQPNDRVFVPTDTLEQVS | -0.514
HMIYMIDPNDEIAVKLDEIYQRYLNRTIDPEGLIFFYNQIRNAQMGYSDVEKRILESPEYVSIPK | -0.242
HMINVVDEVIKHLETNIISGFWAPGQKIDSEATLSKQLNVSRASIHTAIQQLIATGVLESFQGKGTFVRS | -0.624
HMRRSDLVTQGDEILKRLQWNQQQAKDFLNQHLKASSRQQLTDEQLLNFNMLLEEQLVKSME | 0.103
HMDDPWHNLANAIVAVAADDYRSALRNEDEGLLKSLELFFHSEWYRILTDVDADRLLGMLRRERS | -1.62
HMTTAGTAIVQTGNSGKLNLREQAYANAGILGRYSNGTAVTVLQKGAAWSYVEVKGQKGYMMSKFLKFTS | -0.0681
HMDTPMYMAIIEEVRFQIANEILKEGEQLPSIRNLAKTLKVSVITVKRAYKELEEAGYITTIPAKGSKVS | -1.43
HMEPDEIVLDHRKRIENSDAIVLIAPIWNFRMPAILEGWIDKVLAPPWAFKFKKLFGNYGYPVGNLKG | 0.103
HMNNISKKIKELREQNNITQNKLANDLFIKQQTVAQWENGSRALKADSIISLAKYFNVSTDYLLGLTEN | -0.339
HMNRLEFLQGLKAELEGRVPHSIIQENLRYYDSYISDEAAKGQSEEDVVESLGGPRIIARTIVDAA | 0.134
HMTPTVEAAKEEVLRVLASAAPRGLTRTELEAEVSFRRTKLRDTLVELERIGRIDSVGRRGNATTYRLIG | -0.615
HMAFDESLVRSIQELLSELGYSPGKIDGLLGAKTVAAIKAFELEINKDQLTGEPSEELLIALQLAIRSSKM | -1.13
HMDSRQIIAALQARYADETGITALKIKFNNVLGYFVDVPARYGDPLMKPPLSETFIHRQTLASNVRF | -0.0732
HMVGLKWYDTGNKKPPIGTEYKNTELSEALKGHDRKEFTWKELDVLGVNITDKEQYIVVGENYYTQV | -0.197
HMHMELHEKIRLARELNKWSQEEVAEKLEMSPSGYAKIERGETALNIPRLEQIAEIFNIDIWELVKA | -0.573
HMKKSGFFSAGDRIQLTDNKGRQYSFNITEGKEFHTHQGFIKHDDLIGMPEGSVVSINSTTGVVQKFMAF | -0.164
HMSSVEEILQTLGGRIRTQRLAQGISQQVLADRAGLSLGAVRQLEGSGQSGLDTLVRVLFVLGIVDEL | -2.21
HMDLKHNQITMRELLRNKQAYLLLYKEFPMFMTPAILQNIRPLTLQQIIQMVRPYISRPKLNMLLEQLENI | -0.124

Sequence | soluble fraction (log2)
HMENPVPVIITDQNFQPLLWKNVGVPTDTIFHELSPENQKKLENLMKTMVQMPLTDDGRISGYAYYSK | -0.195
HMIQLTDAEFNELVTYIKKNYGINLIKKRLLIEARMYSVLAKHGFTSFTEYINLIKRDPAELNTMLNKLTT | -1.72
HMSQSIGQEKALSIALADAGVQKENALGLEVKGEYDDGQLLYEVEFRAGGVEYEYEVRASDGRIVKAERD | 0.13
HMTRQKEAILALLTDSRGEALSASELLARLTRSGSSIGRTTVYRLLSQLVDDGVVRAWRDASRGITLYELS | -0.113
HMAVNVNGIHLSSQQHEALVSIWRTGRMPEPHAGQKPWLWIQALRRRGLVSGNALRLTDKGRHIVQLLQ | 0.142
HMQGYELKMYVTPDTKYSVAVYDAKNEMVSYTMGFSAKAPFGQEGEVLETVKLEFDKLAVGNYELKYWI | 0.314
HMTDQYEVQNLVGLTVREAQEKEGVKDIFEVREVGSEFSAEYDAGLIVRQSPDAGEQRKGEGLVIEVWVSA | 0.0425
HMKIDLKQIEGVLDELAKVKGSLITILQKTQETYGYLPKEAIIYISERTGIAESEIMGVATFYTQFRL | -0.105
HMRIAGIDIPDNKRGEVALTYIFGIGRSSSKKILKSAGIDSDKQIGKWTDDESNLVRKLIRDEYTIEGDL | -0.412
HMLILDTDGRYVIKRGDSLSEILEKIANGSNINLNLLKRAFVTANPKAFKRANPNWMYANAR | -0.113
HMATKEQIKRIYGLGAGLGIVGKDKDDMLHELIFSITGKDSVKQLDDSEFKAVQAELINRMKLA | 0.132
HMAEKEYYYATDALNLRQGPGMEHTVKGEVVLGERVALLGLEGKWAKIQNAQGTTGYVFSAYLAPS | 0.0931
HMSRFLEGILQRRAGGKNYFVPDDGSNPIFIADRNSAGAANGDRVRIAQFARRPRSGPEGEVVEILKRAK | -0.00665
HMQSDQLSDREREILRLIGSGRTNQEISQELQVSGSTVRTHLQHILDKLGLENRNQAVLYAIRIGLAAPP | -0.125
HMQMLQDPFLNALRKEHVPVSIYLVNGIKLQGQVESFDQYVVLLRNTSVTQMVYKHAISTIVPARAVSL | -0.403
HMFSQDQIFLRSGEKIDARVIEVTPEFIKYKSKANPEGPLYSKKITDVLLITYANGTTEVYE | -0.00684
HMAIKWTPEIEDEVSNKLKEKWSPEQISAWLKKNKSIMISHQRIYQFIVEDKMSGGNLYRNLRQ | -0.695
HMEGIAYDINTAPEHIDLKAEDMMATFNIGKTALWRWVKQKILPPPYEYRSQAAHWTIGQIRDWKTA | -0.0672
HMDGIPVPDVKGTVEAEATATLKNSGFEVTKTQDFSDTVEAGKVISQNPAGGSSAASGSSVTLVISQGPN | 0.0569
HMGRMTRKDRALATDLYGRIVGNVDDFHEGRIDYETFSERQRGLWTTLDAAGPEVKRAVLADIRERL | -0.187
HMLKPIHKDWSPNGDAKEILLKAGITEEFIQKELPEFIMYWSERNEESDIWNSKFIAHIRRRWGRFS | -1.14
HMEIETPEIRAIHDLLELLANKAKKPEQEQFVQAHPEVQWAKVEANKNGTFAVGKVKAYLKTLQA | -0.308
HMKKYDIKEAQEIAEINRIPGLVTTSHGRRVYFDPKIMQYVSEEQIVKKYGQKTVKMLDQWYVSNILNK | -0.0388
HMSENIQLQKEQLYQLIAQLPEQRQKIFRLHKIDNYSYQEISDFTGLSRKTIANHIYLAHQFILKKVKK | -3.25
HMIAVSQEQIKQIIVDDPSFHDANGKFSQALLTQYLNQRRMSEDQFVEEIRDQFLFQNLQNLVQNG | 0.0233
